Here are results for one substance from paper PMC13031426.

Broadly, the stoichiometry N is a count of units in the complex or per binding partner.

This experiment has as its target Complex III (cytochrome bc1 complex) dimer of the ΔQCR6 yeast supercomplex (Saccharomyces cerevisiae) (UniProt P07143). The experiment can be described thus: cryo-EM structure.

Take “Complex III (cytochrome bc1 complex) dimer of the ΔQCR6 yeast supercomplex (from UniProt P07143 62-309)”: the stoichiometry N was 2.
